Numbered stars: 1 amine (or outer) side, 2 acyl side, 3 side chain; on linkers, the order of the positions; unused ones are H or OH. Square brackets hold non-standard residues; d marks the D form. Suc = O=C(CCC(=O)[*:2])[*:1]; NMeV = CN[C@H](C(=O)O)C(C)C; βAla = NCCC(=O)O
Tests used:
Assay in all cases: cell-based or functional assay
Tilapia tac3 receptor = Tilapia tac3 receptor (tilapia)
Zebrafish tac3 receptor = Zebrafish tac3 receptor (zebrafish)
Salmon tac3 receptor = Salmon tac3 receptor (salmon)

Row | Binder | reduction of the NKB-induced luciferase response (CRE-Luc) (Tilapia tac3 receptor) | reduction of the NKB-induced response (CRE-Luc) (Zebrafish tac3 receptor) | IC50 of inhibition of slNKB-induced SRE-Luciferase activity (Salmon tac3 receptor) | reduction of the NKB-induced luciferase response (CRE-Luc) (Salmon tac3 receptor)
1 | Suc-DIF[NMeV][βAla]LM-NH2 (SMILES CC[C@H](C)[C@H](NC(=O)[C@H](CC(=O)O)NC(=O)CCC(=O)O)C(=O)N[C@@H](Cc1ccccc1)C(=O)N(C)[C@H](C(=O)NCCC(=O)N[C@@H](CC(C)C)C(=O)N[C@@H](CCSC)C(N)=O)C(C)C) [Ant-1] | ~60% | ~60% |  | 
2 | Suc-DF[NMeV][βAla]LM-NH2 (SMILES CSCC[C@H](NC(=O)[C@H](CC(C)C)NC(=O)CCNC(=O)[C@H](C(C)C)N(C)C(=O)[C@H](Cc1ccccc1)NC(=O)[C@H](CC(=O)O)NC(=O)CCC(=O)O)C(N)=O) [Ant-2] | ~60% | ~60% | 2600 nM | 
3 | Suc-DSF[NMeV][βAla]LM-NH2 (SMILES CSCC[C@H](NC(=O)[C@H](CC(C)C)NC(=O)CCNC(=O)[C@H](C(C)C)N(C)C(=O)[C@H](Cc1ccccc1)NC(=O)[C@H](CO)NC(=O)[C@H](CC(=O)O)NC(=O)CCC(=O)O)C(N)=O) [Ant-3] | ~60% | ~60% | 6.16 nM | 
4 | Suc-DI[dW][NMeV][βAla]LM-NH2 (SMILES CC[C@H](C)[C@H](NC(=O)[C@H](CC(=O)O)NC(=O)CCC(=O)O)C(=O)N[C@H](Cc1c[nH]c2ccccc12)C(=O)N(C)[C@H](C(=O)NCCC(=O)N[C@@H](CC(C)C)C(=O)N[C@@H](CCSC)C(N)=O)C(C)C) [Ant-4] | ~60% | ~60% |  | ~60%
5 | Suc-D[dW][NMeV][βAla]LM-NH2 (SMILES CSCC[C@H](NC(=O)[C@H](CC(C)C)NC(=O)CCNC(=O)[C@H](C(C)C)N(C)C(=O)[C@@H](Cc1c[nH]c2ccccc12)NC(=O)[C@H](CC(=O)O)NC(=O)CCC(=O)O)C(N)=O) [Ant-5] | ~60% | ~60% |  | 
6 | Suc-DS[dW][NMeV][βAla]LM-NH2 (SMILES CSCC[C@H](NC(=O)[C@H](CC(C)C)NC(=O)CCNC(=O)[C@H](C(C)C)N(C)C(=O)[C@@H](Cc1c[nH]c2ccccc12)NC(=O)[C@H](CO)NC(=O)[C@H](CC(=O)O)NC(=O)CCC(=O)O)C(N)=O) [Ant-6] | ~60% | ~60% | 870 nM | ~60%
